From the nanobody polyreactivity screen of Harvey et al. (2022)

Assay: yeast display, Sf9 membrane polyspecificity reagent, FACS + sequencing; frameworks hold sequencing errors
Method in brief: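 A synthetic nanobody library was expressed on Saccharomyces cerevisiae BJ5465 by galactose induction for 36–48 hours. The library was stained for 1 hour at 4 °C with 10% biotinylated, detergent-solubilized Sf9 membrane reagent and enriched with streptavidin microbeads before FACS. Low and high (top ~1%) gates were set on anti-HA fluorescence for expression and streptavidin fluorescence for reagent binding, and each polyreactivity label reflects the gate of origin.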

Sequence | polyreactivity (PSR sort gate)
QVHLVESGGGLVQAGGSLLLSCAASGSTQLGNAMGWYRQAPGKERELVAAISTSGDSTNYADSVKGRFTISRDNAKNTVYLEMNSLKPEDTAVYYCNAGGYLNSDVDRVGYWGQGTQVTVSS | low polyreactivity
QVHLVESGGGLVQAGGSLRISCAASGSIFKGYAMGWYRQAPGKERELVAAITIDGSTYYADSVKGRFTISRDNAKNTVYLQMNSLKPEDTAVYYCDAVYLWYGSWPLHFAAYDYWGQGTQVTVSS | low polyreactivity
QVHLVESGGGLVQAGGSLRISCAASGSNFSYYARGWYRQAPGKESELVAAISQSGGTTYYADSVKGRFTISRDHAKNTVYLQMNCLKPEDTAVYYCAARAPSSFDTQYYYWGLGTQVTVSS | low polyreactivity
QVHLVESGGGLVQAGGSLRISCAASGSSFSIYAMGSYRQAPGKERELVAAITCTVGSTYYADSVKGRFTISRDIAKYTVYLPLNSLKPEDTAVYYFAARQVNYDYDFWGQGTQVTVSS | low polyreactivity
QVHLVESGGGLVQAGGSLRISCAATGYTFLYNAMGWYRQAPGKEREFVAGIRRSVGSTYYADSVKGRFTISRDNAKNTVYLQMNSMTREDTAVYYCALVPALYRYRVGTYAYDYWGQGTQVTVSS | low polyreactivity
QVHLVESGGGLVQAGGSLRLCCAASGITFQVYAKGCYRPAPGKERELVAAINWSGTRTYYADSVKGRFTISRDNAKNTVYLQMNSLKPEDTAVYYCAAAERSLGYYYWGQGTQVTVTS | high polyreactivity
QVHLVESGGGLVQAGGSLRLICAASGFTFDFYAMGWYRQAPGKERELVAAISKNDGTTYYADSVKGRFTISRDNAKNTVYLQMYSLKPEDTAVYYCAAESGYPVYTYVSSGDYWGQGTQVTVSS | low polyreactivity
QVHLVESGGGLVQAGGSLRLICAASGRIFIVYAMGWYRQAPGKERELVAVITGGGSTNYADSVKGRFTISRDNAKNSVYLQMNSLKPEDTAVYYCATEGYGHGGETVGGVYSDLGYWGQGTQVTVSS | low polyreactivity
QVHLVESGGGLVQAGGSLRLICAASGSIYTPNAMGWYRQAPGKETELVAAISSSSDRTYYADSVTGRFTISRDNAKNTFYLQMNSLKPEDTEVYYCNADLRGHGRGTDQYIFDYWGQGTQVTVSS | high polyreactivity
QVHLVESGGGLVQAGGSLRLRCAASGGTSRSYAKGWYRPAPGKERELVAAISWRGGRTYYADSVKGRFTISRDNAKNTVYFQMNRLKPEDTAVYDCAARLPGYYGIGDYWGLGTQVTVSS | high polyreactivity
QVHLVESGGGLVQAGGSLRLSCAAAGRTFSSYAMAWYRQAPWQERELVAAITSGGTTYYADSVKGRFTISRDNAKNTVDLQMNSLKAEDPAFYYCARRSYLYDSYLTKKKYYDYCGQGTQVTVSS | low polyreactivity
QVHLVESGGGLVQAGGSLRLSCAASGFIFEPYAMGCYRQAPWKEWELVAAISSGGSTYADSVKGRFTISRDNAKNTVYLQMISLKPEDTAVYYCAADSYYSVWGFYFWGQGTQVTVSS | low polyreactivity
QVHLVESGGGLVQAGGSLRLSCAASGFIFKFDAMGWYRQAPGKEREMVAAITASSGRTNYADSVKGRFTISRDNAKNTVYLHMNSLKPEDTAVYFCAARRWPKYSAYRYDYWGQGTQVTVSS | high polyreactivity
QVHLVESGGGLVQAGGSLRLSCAASGFIFKKYAMGWYRQAPGKERELVAAIDSSGSTTYADSVKGRFTISRDNAKNTVYLQMNSLKPEDTAVYYCAAPFTVYRHAPDMDYWGQGTQVTVSS | low polyreactivity
QVHLVESGGGLVQAGGSLRLSCAASGFIFQYYAMGWYRQAPGKEREMVAAINRGGGTHYADSVQGRFTISRDNAKNTVYLQMNSLKPEVTAVYYCNKVYYWPGSRPSRYEYWGQGTQVTVSS | low polyreactivity
QVHLVESGGGLVQAGGSLRLSCAASGFIFRIYAMGWYRQAPGKERELVAAINSSVSTSYADSVKGRFTISRDNAKNTVYLQMNSLKPEDTAVYYCAASRWPYPSYLYIVDSWGQGTQVTVSS | low polyreactivity
QVHLVESGGGLVQAGGSLRLSCAASGFIFYSNMGWYRQAPGKESEFVAAITWRGGSTYADSVKRRFTISRDNAKNSVYLQMNILKPEDPAVSYCAGESYRAHTPGHPSCTRFGYWGQGTHVTVSS | high polyreactivity
QVHLVESGGGLVQAGGSLRLSCAASGFTFDTYDMGWYRQAPGKERELVAAIDRSGVSTYYADSVKGRFTISRDTAKNTVYLQMNSLKQEDPAVYYCAADLWQYDIASWDYTYDYWGQGTQVTVSS | low polyreactivity
QVHLVESGGGLVQAGGSLRLSCAASGFTFEGYAMGGYRQQPGKEREYADSVKGRFTISRDNAKNTVYLQMNSLKPEDTAVYYCASTSYVSSSRTIYSGFVEFEYLGQGTQVTVSS | low polyreactivity
QVHLVESGGGLVQAGGSLRLSCAASGFTFESYAMGWYRQAPGKERELVAAISDGGGDTYYADSVKGRFTISRDNAKNTVYLQMNSLKQEDTAVYYCAAEWDGNWYRGAGGYDYWGQGTQVTVSS | low polyreactivity
QVHLVESGGGLVQAGGSLRLSCAASGFTFNGYAMGWYRQAPGKESEMVAGITRRGGITYYADSVKGRFTISRYNAKNTVYLQMNSLKPEETAVYYCARDYIGHALIHHASLYYYWGQGTQVTVSS | high polyreactivity
QVHLVESGGGLVQAGGSLRLSCAASGFTFVRNAMGWYRQAPGKERELVAAISGSGGSTYYADSVKGRFTISRDTAKNTVYLQMNSLKPEDTAVYYCAAGWTRGWSLDYYYWGQGTQVTVSS | high polyreactivity

Sequence | polyreactivity (PSR sort gate)
QVHLVESGGGLVQAGGSLRLSCAASGFTFVRYAMGWYRQAPGKERELVASISYSGGSTYYADSVKGRFTISRDNAKNTVYLQMNSLKPEDTAVYYCAALHRINTLLLPMDYWGQGTQVTVSS | high polyreactivity
QVHLVESGGGLVQAGGSLRLSCAASGFTIAFNAMGSYRQAPGKERELVASITGGGSTNYADSVKGRFTISRDNAKNTVYLQMNSLKPEDTAVYYCAARYFWAWERDLFLEFDYWGQGTQVTVSS | low polyreactivity
QVHLVESGGGLVQAGGSLRLSCAASGFTLANYAMGWYRQPPGKERELVAAIDYSGGGTYYADSVKGRFTISRDNAKNTVYLQMNSLKPEDTAVYYCAARRWSYYSAKYDYWGQGTQVTVSS | low polyreactivity
QVHLVESGGGLVQAGGSLRLSCAASGGIFFPNAMGWYRQAPWKERELVAAISWSAGSTYYADSVKGRFTISRDNAKNTVYLELNSVKPEDTAVYYCAAAGSKNTVLYGYYYWGQGTQVTVSS | low polyreactivity
QVHLVESGGGLVQAGGSLRLSCAASGGIFYPNAMGWYRQAPGKERELVAAISSGGGSTYYADSVKGRFTISRDNAKNTVYLQMNSLKPEDTAVYYCAASAYSLKSDVEYDYWGQGTLVTVSS | low polyreactivity
QVHLVESGGGLVQAGGSLRLSCAASGGTFSVYGMGWYRPAPGKERELVAAITVTGGRTYYADSVKGRFTISRDNAKNTVYLQMNSLKPVDSAVYYCNTLPWSRTKRDYWGQGTQVTVSS | low polyreactivity
QVHLVESGGGLVQAGGSLRLSCAASGIIFPSYAMGWYRQAPGKERELVAAIDGSGGITYYADSVKGRFTISRDNAKNTVYLQLNSLKPEDTAVYYCNAEREYYDYGNDDYWGPGTQVTVSS | low polyreactivity
QVHLVESGGGLVQAGGSLRLSCAASGIIFYDNTMGWYRQAPGTERELVASITWRGGSTYYADSVKGRFTISRDNAKNTVYLQMNSLKPEDTAVYYCNADSSDDYDYWGQGTQVTVSS | low polyreactivity
QVHLVESGGGLVQAGGSLRLSCAASGIIFYYYTMGWYRQPPGKERELVASISRDGGSTHYADSVKGRFTISRDNAKNTVYLQMNSLKPEDTAVYYCAARYPTGSSYAFYRRKVYYWGQGTQVTVSS | high polyreactivity
QVHLVESGGGLVQAGGSLRLSCAASGITFAWYAMGRYRQAPGKERELVAAITRGGGSTYYADSVKGRFTISRDNAKNTGYLQMNSLKPEDTAVYYCAARPYSYPYGYWGQGTQVTVSS | low polyreactivity
QVHLVESGGGLVQAGGSLRLSCAASGITFDLYAMGWYRQAPGKERELVAASTYYADSVKGRFTISRDNAKNTVYLQMNSLKPEDTAVYYCNTREPVTYDYWGQGTQVTVSS | high polyreactivity
QVHLVESGGGLVQAGGSLRLSCAASGITFRRNAMGWYRQAPGKERELVARITVSGGTTYYADSVKGRFTISRDYAKNTVYLQMNSLKPEDTAVYYCAKVWHSSRVSPYDYWGQGTQVTVSS | low polyreactivity
QVHLVESGGGLVQAGGSLRLSCAASGITFTRYNMGWYRQAPGKERELVASIRRSGSTNYADSVKGRFTISRDNAKNTVYLQMNSLKPEDTAVFYCAAVNYGYPKPYDYWGQGTQVTVSS | high polyreactivity
QVHLVESGGGLVQAGGSLRLSCAASGLIFGDYAMGWYRQAPGKERELVAAITGSVTRRYYADSVKGRFTISRDNAKNTVYLQMNSLKPEDTAVYYCATVGYPYTLWHQMDYWGQGTQVTVSS | low polyreactivity
QVHLVESGGGLVQAGGSLRLSCAASGLIFNIYAMGWYRQAPGKERELVAAISKSGGSTYYADSVKGRFTISRDNAKNTVYLQMNSLKPEDTAVYYCAVVRNSYRVLRLNYWGQGTQVTVSS | high polyreactivity
QVHLVESGGGLVQAGGSLRLSCAASGLIFRRYAMGWYRQAPGKERELVAVISSGGRTYYADSVKGRFTISRDNAKNTVYLQMNSLKPEDTAVYYCAARTRSYWGTYGSYHYDYWGQGTQVTVSS | high polyreactivity
QVHLVESGGGLVQAGGSLRLSCAASGLIFSDYAMGWYRQAPGKERELVAAIRSGGRTYYADSVKGRFTISRDNAKNTVYLQMNSLKPEDTAVYYCNKLYRRSPVPREYDYWGQGTQVTVSS | high polyreactivity
QVHLVESGGGLVQAGGSLRLSCAASGLILSYNAMAWYRQAPGKERELDAAISYSGGSTYYADSVKGRFTITRDNAKNTVYLQMNSLITEDSAVYYCAAVWRRQGSAYLGSYGYDYWGQVTQVTVSS | high polyreactivity
QVHLVESGGGLVQAGGSLRLSCAASGLTFHRYAMGWYRQAPGKERELVAAINYSGGRTYYADSVKGRFTISRDNAKNSVYLQMNCLKPEDTEVYYCAAPRASGYYWGQGTQGTVSS | high polyreactivity
QVHLVESGGGLVQAGGSLRLSCAASGLTFWAYTLGWYRQAPGQERELVAAITSSGGRTYYADSVKGRFTISRDNAKNTVYLQMNSLKPEDTGVYYCNARIFRSPTPYDYWGQGTQVTVSS | high polyreactivity
QVHLVESGGGLVQAGGSLRLSCAASGNTFQRYTMGWYRQAPGKERELVAAITWSGGNTYYADSVKGRFTISRDNEKNTVYLQMNSLKPEDTAVYYCNADYPTTAYDYWGQGTQVTVSS | low polyreactivity
